Test results taken from patent US20150241442A1.

Target: Leukocyte Function Antigen-1 (LFA-1), on cells (Jurkat T cells, human T cells, PBMC) (human) (UniProt P20701)
Test: cell-based or functional assay

Leukocyte Function Antigen-1 (LFA-1), on cells (Jurkat T cells, human T cells, PBMC) (human), sequence (P20701 26-1170, chain 1 of 2): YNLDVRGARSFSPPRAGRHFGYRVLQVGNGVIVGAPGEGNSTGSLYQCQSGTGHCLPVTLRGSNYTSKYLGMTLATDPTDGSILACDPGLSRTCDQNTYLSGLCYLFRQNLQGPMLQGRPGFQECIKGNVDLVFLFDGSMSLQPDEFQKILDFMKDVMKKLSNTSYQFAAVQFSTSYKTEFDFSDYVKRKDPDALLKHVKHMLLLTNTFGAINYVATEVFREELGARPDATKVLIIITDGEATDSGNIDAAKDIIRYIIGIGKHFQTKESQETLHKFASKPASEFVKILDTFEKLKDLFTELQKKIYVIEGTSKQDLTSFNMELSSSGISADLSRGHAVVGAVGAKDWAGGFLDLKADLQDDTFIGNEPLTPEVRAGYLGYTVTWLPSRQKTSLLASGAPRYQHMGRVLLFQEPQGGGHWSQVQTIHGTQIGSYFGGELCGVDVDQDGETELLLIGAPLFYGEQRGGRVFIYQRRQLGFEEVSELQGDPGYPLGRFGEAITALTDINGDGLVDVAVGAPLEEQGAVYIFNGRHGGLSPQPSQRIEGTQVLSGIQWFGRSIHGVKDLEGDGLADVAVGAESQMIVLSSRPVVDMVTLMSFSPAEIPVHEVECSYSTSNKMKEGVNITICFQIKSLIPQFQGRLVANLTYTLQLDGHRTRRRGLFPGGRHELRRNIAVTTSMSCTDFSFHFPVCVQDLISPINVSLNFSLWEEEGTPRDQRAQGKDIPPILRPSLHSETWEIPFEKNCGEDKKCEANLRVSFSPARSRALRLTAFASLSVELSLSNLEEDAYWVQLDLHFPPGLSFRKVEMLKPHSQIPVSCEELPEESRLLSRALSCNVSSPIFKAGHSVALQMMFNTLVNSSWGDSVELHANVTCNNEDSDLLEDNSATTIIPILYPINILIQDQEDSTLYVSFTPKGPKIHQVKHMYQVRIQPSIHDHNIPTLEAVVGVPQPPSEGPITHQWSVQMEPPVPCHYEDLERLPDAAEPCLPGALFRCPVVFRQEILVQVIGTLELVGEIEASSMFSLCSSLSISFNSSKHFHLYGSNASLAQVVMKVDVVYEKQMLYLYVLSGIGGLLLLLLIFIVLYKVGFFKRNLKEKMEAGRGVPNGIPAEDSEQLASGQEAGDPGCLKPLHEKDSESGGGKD
Leukocyte Function Antigen-1 (LFA-1), on cells (Jurkat T cells, human T cells, PBMC) (human), sequence (P05107 23-769, chain 2 of 2, further chain): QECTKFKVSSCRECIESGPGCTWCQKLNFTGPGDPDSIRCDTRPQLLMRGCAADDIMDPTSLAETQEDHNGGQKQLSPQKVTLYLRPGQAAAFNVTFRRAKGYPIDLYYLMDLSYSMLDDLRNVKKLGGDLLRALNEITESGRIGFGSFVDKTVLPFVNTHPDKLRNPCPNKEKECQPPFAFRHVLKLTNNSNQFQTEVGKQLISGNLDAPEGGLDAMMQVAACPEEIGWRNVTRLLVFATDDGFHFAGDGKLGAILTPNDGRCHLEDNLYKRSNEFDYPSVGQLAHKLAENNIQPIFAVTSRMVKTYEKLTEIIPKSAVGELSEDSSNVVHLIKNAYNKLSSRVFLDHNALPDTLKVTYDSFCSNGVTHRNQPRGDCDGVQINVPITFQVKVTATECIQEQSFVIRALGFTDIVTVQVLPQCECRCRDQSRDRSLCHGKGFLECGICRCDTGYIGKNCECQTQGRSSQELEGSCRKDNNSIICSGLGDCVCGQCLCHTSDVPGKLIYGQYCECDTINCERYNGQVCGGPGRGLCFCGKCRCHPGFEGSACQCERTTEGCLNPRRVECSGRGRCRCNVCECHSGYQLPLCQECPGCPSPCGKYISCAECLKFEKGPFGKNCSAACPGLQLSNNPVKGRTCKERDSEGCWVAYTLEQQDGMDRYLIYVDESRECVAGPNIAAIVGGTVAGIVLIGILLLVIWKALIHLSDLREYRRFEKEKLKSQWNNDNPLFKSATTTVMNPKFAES
recombinant human ICAM-1-FC, sequence (P05362 28-480 limits assumed): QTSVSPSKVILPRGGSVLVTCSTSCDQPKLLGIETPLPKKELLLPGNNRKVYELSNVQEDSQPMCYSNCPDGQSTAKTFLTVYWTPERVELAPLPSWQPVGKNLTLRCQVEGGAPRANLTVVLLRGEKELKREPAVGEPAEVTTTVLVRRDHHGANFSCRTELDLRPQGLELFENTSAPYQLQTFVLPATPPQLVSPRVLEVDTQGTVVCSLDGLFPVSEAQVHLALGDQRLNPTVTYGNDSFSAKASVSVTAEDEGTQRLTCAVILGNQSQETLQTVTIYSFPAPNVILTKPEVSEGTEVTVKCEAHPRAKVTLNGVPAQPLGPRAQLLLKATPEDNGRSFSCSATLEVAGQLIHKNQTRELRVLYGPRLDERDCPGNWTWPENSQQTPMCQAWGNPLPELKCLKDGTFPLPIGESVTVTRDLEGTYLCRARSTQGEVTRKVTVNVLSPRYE

“recombinant human ICAM-1-FC (from UniProt P05362 28-480) (Fc fusion)” was tested, and the frequency of the perforin negative population, CD56+CD8med cells was 13.7% and the granzyme-A negative population, CD56+CD8high cells was 4.12%.
